Measurements from US20110150870A1 (UNITED STATES OF AMERICA AS REPRESENTED BY TH, published 2011).

Target: T1, tetanus toxoid (UniProt P04958 2-1315)
T1 construct: also called TT
Experiment: ELISA, 100 ng protein coated per well, anti-human Fab-HRP detection

T1 sequence (P04958 2-457 limits assumed, chain 1 of 2): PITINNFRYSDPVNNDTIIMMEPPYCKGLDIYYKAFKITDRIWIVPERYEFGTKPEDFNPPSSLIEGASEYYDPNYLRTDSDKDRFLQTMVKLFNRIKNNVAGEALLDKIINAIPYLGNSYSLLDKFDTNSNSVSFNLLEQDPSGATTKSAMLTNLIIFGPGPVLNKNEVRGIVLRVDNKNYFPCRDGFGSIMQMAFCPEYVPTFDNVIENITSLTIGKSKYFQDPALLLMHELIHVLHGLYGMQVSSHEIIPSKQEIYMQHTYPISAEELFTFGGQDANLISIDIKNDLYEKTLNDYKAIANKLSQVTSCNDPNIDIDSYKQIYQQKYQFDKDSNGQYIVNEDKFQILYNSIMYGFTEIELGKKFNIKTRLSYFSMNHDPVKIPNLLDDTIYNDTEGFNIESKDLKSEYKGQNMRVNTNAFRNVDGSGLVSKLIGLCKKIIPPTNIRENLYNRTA
T1 sequence (P04958 458-1315 limits assumed, chain 2 of 2): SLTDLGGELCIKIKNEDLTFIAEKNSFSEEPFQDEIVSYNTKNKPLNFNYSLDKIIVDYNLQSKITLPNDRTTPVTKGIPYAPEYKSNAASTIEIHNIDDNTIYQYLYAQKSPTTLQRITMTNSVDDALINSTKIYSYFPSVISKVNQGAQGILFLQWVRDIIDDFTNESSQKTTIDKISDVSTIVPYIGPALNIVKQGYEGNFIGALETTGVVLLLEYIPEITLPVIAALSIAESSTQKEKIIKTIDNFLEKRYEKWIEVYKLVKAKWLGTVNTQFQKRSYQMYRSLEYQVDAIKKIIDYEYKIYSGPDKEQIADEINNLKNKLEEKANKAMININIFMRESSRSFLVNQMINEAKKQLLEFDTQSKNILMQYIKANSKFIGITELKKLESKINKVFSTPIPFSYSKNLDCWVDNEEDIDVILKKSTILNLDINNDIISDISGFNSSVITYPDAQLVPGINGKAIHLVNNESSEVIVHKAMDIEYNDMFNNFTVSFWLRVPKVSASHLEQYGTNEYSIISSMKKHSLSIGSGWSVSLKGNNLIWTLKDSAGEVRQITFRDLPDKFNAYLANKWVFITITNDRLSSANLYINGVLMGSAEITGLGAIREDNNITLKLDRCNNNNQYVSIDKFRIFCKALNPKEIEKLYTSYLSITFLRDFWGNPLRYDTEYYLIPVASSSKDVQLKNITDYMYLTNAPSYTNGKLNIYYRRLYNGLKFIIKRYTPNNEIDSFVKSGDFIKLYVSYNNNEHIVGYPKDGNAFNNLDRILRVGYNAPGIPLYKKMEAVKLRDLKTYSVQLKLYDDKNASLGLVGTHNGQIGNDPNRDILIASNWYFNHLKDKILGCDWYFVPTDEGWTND

Binder | binding result
KYK-1.0 Fab (Fab, V domains shown, Human Fab with human constant domains (lambda light chain) and a C-terminal (His)6 tag, expressed in E. coli from pC3C-His and purified by IMAC) VH: EVQLVESGGGVVQPGGSLRLSCAASGFTFSSYGMHWVRQAPGKGLEWVAFIRYDGSNKYYADSVKGRFTISRDNSKNTKYLQMNSLRAEDTAVYYCAKDRFGYYLDYWGQGTLVTVSS VL: QPVLTQPSSVSVAPGETARIPCGGDDIETKSVHWYQQKPGQAPVLVIYDDDDRPSGIPERFFGSNSGNTATLSISRVEAGDEADYYCQVWDDNNDEWVFGGGTQLTVL | no binding
KYK-2.0 Fab (Fab, V domains shown, Human Fab (lambda) with human constant domains and a C-terminal (His)6 tag, expressed in E. coli from pC3C-His and purified by IMAC) VH: QVQLVESGGGLVKPGGSLRLSCAASGFTFSSYGMHWVRQAPGKGLEWVAFIRYDGSNKYYADSVKGRFTISRDNSKNTKYLQMNSLRAEDTAVYYCAKDRGLGDGTYFDYWGQGTTVTVSS VL: QSALTQPASVSGSPGQSITISCSGSSSNIGNNAVNWYQQLPGKAPKLLIYYDDLLPSGVSDRFSGSKSGTSAFLAISGLQSEDEADYYCAAWDDSLNGPVFGGGTKLTVL | no binding
